Measurements taken from patent publication US20200000897A1 (published 2020).

target: T1, HLA-A*03:01 (human); experiment: UV-ligand exchange, anti-b2m ELISA; peptide exchange yield grade (>10% +, >20% ++, >50% +++, >75% ++++)
T1 construct: MHC class I monomer first loaded with a UV-sensitive peptide that is cleaved by UV irradiation and exchanged for the test peptide; captured on streptavidin plates; also called peptide-receptive MHC molecules
Source text: Candidate peptides for T cell based therapies according to the present invention were further tested for their MHC binding capacity (affinity). The individual peptide-MHC complexes were produced by UV-ligand exchange, where a UV-sensitive peptide is cleaved upon UV-irradiation and exchanged with the peptide of interest as analyzed. Only peptide candidates that can effectively bind and stabilize the peptide-receptive MHC molecules prevent dissociation of the MHC complexes. To determine the yield of the exchange reaction, an ELISA was performed based on the detection of the light chain (β2m) of stabilized MHC complexes. The assay was performed as generally described in Rodenko et al. (Rodenko et al., 2006)
96 well MAXISorp plates (NUNC) were coated over night with 2 ug/ml streptavidin in PBS at room temperature, washed 4× and blocked forl h at 37° C. in 2% BSA containing blocking buffer. Refolded HLA-A*02:01/MLA-001 monomers served as standards, covering the range of 15-500 ng/ml. Peptide-MHC monomers of the UV-exchange reaction were diluted 100-fold in blocking buffer. Samples were incubated for 1 h at 37° C., washed four times, incubated with 2 ug/ml HRP conjugated anti-β2m for 1 h at 37° C., washed again and detected with TMB solution that is stopped with […]. Absorption was measured at 450 nm.

| Binder | peptide exchange yield |
| --- | --- |
| AVAQKLLSH | > 75% |
| VSLGTPIMK | 50 to 75% |
| SLYDGFLSY | > 75% |
| SVLDKLLFH | > 75% |
| RVYPRPPSKTY | > 75% |
| KAFNQSSIFTK | 50 to 75% |
| ALPRQAFHSK | > 75% |
| GISNPITTSK | > 75% |
| AVYNYPEGAAY | > 75% |
| SSLAELIAK | 20 to 50% |
| RSNPYFQNK | > 75% |
| RTIDRSVFK | > 75% |
| ALERKFRQK | > 75% |
| KLSLSHKK | 50 to 75% |
| KIWQNLRLK | 50 to 75% |
| RVWLGKHYK | > 75% |
| AVIGALLAVGATK | 50 to 75% |

Other lines, results leading:

| peptide exchange yield | Binder |
| --- | --- |
| > 75% | RSYVPLAH |
| 50 to 75% | RLSPGPRAY |
| > 75% | AVCGGVLVH |
| 50 to 75% | RVYEGDGRNSLK |
| > 75% | RLPLRVVKH |
| > 75% | TMWQIPQEFVK |
| > 75% | RLAVSTRGK |
| 50 to 75% | EGLFLLGCVK |
| > 75% | KLYPTHACR |
| > 75% | KLFTSVFGVGLK |
| 50 to 75% | RVSSVKLISK |
| 50 to 75% | QVRDTLKIVFK |
| 50 to 75% | KVMPKQTWK |
